# Laboratory results reported in patent publication US10488411B2, “Inflammasome activation in myelodysplastic syndromes” (H. LEE MOFFITT CANCER CENTER AND RESEARCH INSTITUTE, INC., priority 2015, dated 2019).
# B1: CD33-IgG1: S100A9 high-affinity chimeric (CD33-IgG1) decoy receptor (protein)
# chain: DPNFWLQVQESVTVQEGLCVLVPCTFFHPIPYYDKNSPVHGYWFREGAIISRDSPVATNKLDQEVQEETQGRFRLLGDPSRNNCSLSIVDARRRDNGSYFFRMERGSTKYSYKSPQLSVHVTDLTHRPKILIPGTLEPGHSKNLTCSVSWACEQGTPPIFSWLSAAPTSLGPRTTHSSVLIITPRPQDHGTNLTCQVKFAGAGVTTERTIQLNVTYVPQNPTTGIFPGDGSGKQETRAGVVH
# modifications: left off: a dimerising Fc or GST
# Columns and labels:
# [1] = test system: MDS BM-MNC; experiment: Pyroptosis flow cytometry panel (a-caspase-1+/annexin-V+) in MDS BM-MNC incubated with autologous BM plasma; type: cell-based, human
# Procedure: Pyroptosis flow cytometry panel. For human samples, treated and untreated BM-MNC were incubated overnight in IMDM, supplemented with 10% autologous BM plasma. Subsequently, cells were harvested, washed twice in 1×PBS, and stained with LIVE/DEAD Violet fluorescent reactive dye according to the manufacturer's protocol (Life Technologies). Cells were resuspended in 1×PBS with 2% BSA, and incubated at room temperature for 15 minutes to block non-specific binding. After washing, cells were stained with 30× FAM-FLICA® Caspase-1 and Caspase-3/7 solution at a ratio of 1:30 for 2 hours at 37° C. Cells were washed and stained for cell surface receptors using CD38:PE-CF594, CD33:BV711, CD34:APC (BD Biosciences), and CD71:PE-Cyanine7 (eBioscience). All antibodies were diluted 1:20, and cells were stained for 30 minutes at 4° C. Cells were washed, resuspended in 1× binding buffer, and stained with Annexin-V:Cy5.5 at a dilution of 1:20 for 15 minutes at room temperature (BD Biosciences). 1× binding buffer was added to a final volume of 400 μL. Sample acquisitions were carried out using a BD LSR II flow cytometer and FACSDiva software (BD Biosciences). Calibration of the flow cytometer was carried out prior to each experiment using Rainbow Mid-Range Fluorescent Particles (BD Biosciences). To establish fluorescence compensation settings, ArC Amine Reactive Compensation Beads were used for LIVE/DEAD Violet staining (Life Technologies), and BD CompBead Plus Anti-Mouse Ig κ/Negative Control (BSA) Compensation Plus Particles were used for surface receptor conjugates (BD Biosciences). Data were analyzed using FlowJo 9.7.5 software (FlowJo, LLC, Ashland, Oreg.).
# [2] = test system: pyroptosis-related gene expression; experiment: qPCR of pyroptosis-related gene expression in lower-risk MDS BM-MNC; type: cell-based, human; conditions: lower-risk MDS BM-MNC (n=5), 24 hours, versus autologous BM plasma alone
# Procedure: Real-time quantitative PCR. RNA was isolated from BM-MNC using the RNeasy Mini Kit (Qiagen). cDNA was produced using the iScript cDNA Synthesis Kit (Bio-Rad). Sequences for primers can be found in Table 1. GAPDH mRNA was used for transcript normalization. cDNA was amplified using the iQ SYBR Green Supermix and the CFX96 Real-Time PCR Detection System (Bio-Rad). PCR conditions were as follows: 10 minutes at 95° C., followed by 40 cycles of amplification (15 seconds at 95° C. and 1 minute at 60° C.). Relative gene expression was calculated using the −2^ΔΔCt method.
molecule,measurement,setting,value
B1,"reduction of fraction of pyroptotic cells, maximum lineage-specific change, CD33+ cells","[1]; CD33+ immature myeloids, 0.5 μg CD33-IgG1 or 0.1 μM IRAK4 inhibitor, 24 hours, autologous BM plasma",68%
same,"reduction of fraction of pyroptotic cells, maximum lineage-specific change, CD71+ cells","[1]; CD71+ erythroids, 0.5 μg CD33-IgG1 or 0.1 μM IRAK4 inhibitor, 24 hours, autologous BM plasma",64%
same,fraction of pyroptotic cells across all lineages studied,"[1]; MDS BM-MNC (n=4) with autologous BM plasma, 0.5 μg CD33-IgG1 or 0.1 μM IRAK4 inhibitor, 24 hours",marked reduction
same,"reduction of fraction of pyroptotic cells, maximum lineage-specific change, progenitor cells","[1]; progenitor cells (CD34+CD38+), 0.5 μg CD33-IgG1 or 0.1 μM IRAK4 inhibitor, 24 hours, autologous BM plasma",23%
same,MDSC fraction,[1]; short-term treatment of MDS BM-MNC,significantly reduced
same,"reduction of fraction of pyroptotic cells, maximum lineage-specific change, stem cells","[1]; stem cells (CD34+CD38-), 0.5 μg CD33-IgG1 or 0.1 μM IRAK4 inhibitor, 24 hours, autologous BM plasma",44%
same,CASP3 expression,[2],markedly reduced
same,expression of CASP1,[2],reduced
same,expression of IL-1β,[2],reduced
same,expression of IL-18,[2],reduced
same,expression of NLRP3,[2],reduced
